According to patent EP1682577B1:

Columns and labels:
Test in all cases: cell-based or functional assay
Melanocortin 1 receptor = Melanocortin 1 receptor (UniProt Q01726)
CRHR1 = CRHR1 (UniProt P34998)
Melanocortin 5 receptor = Melanocortin 5 receptor (UniProt P33032)
[1] = biological target: Vasoactive Intestinal Peptide 1 receptor (UniProt P32241)
Vasoactive Intestinal Peptide 1 receptor, sequence (P32241 31-457): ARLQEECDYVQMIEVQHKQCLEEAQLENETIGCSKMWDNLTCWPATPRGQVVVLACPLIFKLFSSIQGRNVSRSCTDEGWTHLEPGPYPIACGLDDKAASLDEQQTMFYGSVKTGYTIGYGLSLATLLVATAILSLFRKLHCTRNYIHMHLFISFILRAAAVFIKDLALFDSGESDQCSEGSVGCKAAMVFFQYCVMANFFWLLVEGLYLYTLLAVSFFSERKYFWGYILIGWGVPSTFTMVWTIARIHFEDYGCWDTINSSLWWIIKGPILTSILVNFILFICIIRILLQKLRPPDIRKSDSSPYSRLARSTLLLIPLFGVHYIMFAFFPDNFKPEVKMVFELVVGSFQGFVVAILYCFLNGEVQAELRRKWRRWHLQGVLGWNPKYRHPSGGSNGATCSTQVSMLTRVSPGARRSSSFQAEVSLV

Melanocortin 5 receptor, sequence (P33032 whole entry): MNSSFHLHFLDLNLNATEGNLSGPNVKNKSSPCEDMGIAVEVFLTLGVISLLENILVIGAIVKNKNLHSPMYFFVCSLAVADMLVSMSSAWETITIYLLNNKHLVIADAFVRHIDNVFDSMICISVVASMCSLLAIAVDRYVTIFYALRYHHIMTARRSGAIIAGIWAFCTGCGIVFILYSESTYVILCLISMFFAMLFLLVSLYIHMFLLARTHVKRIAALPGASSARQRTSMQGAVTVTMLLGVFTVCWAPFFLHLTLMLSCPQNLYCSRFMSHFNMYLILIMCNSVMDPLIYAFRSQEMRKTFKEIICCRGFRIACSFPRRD
Melanocortin 1 receptor, sequence (Q01726 whole entry): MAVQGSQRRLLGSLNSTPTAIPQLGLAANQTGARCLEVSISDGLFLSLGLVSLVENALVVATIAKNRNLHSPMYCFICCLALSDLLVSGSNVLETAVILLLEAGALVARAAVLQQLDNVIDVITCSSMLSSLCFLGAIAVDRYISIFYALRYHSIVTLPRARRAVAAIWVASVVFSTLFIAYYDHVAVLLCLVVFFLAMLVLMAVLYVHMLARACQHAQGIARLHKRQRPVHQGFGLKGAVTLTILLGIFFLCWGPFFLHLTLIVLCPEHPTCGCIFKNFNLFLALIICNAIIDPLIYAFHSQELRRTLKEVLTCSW
CRHR1, sequence (P34998 24-415 limits assumed): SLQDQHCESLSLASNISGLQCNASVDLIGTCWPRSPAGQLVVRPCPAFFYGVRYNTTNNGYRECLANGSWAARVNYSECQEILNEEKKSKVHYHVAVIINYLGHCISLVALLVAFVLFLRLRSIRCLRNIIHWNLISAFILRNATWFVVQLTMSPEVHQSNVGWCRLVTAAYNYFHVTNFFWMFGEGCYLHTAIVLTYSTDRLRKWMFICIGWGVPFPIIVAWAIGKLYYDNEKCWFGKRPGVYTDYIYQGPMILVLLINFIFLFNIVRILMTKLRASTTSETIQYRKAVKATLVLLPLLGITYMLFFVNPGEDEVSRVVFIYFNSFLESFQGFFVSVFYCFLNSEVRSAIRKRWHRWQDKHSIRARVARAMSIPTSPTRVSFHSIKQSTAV

With “α-MSH (from UniProt P01189 138-150) (peptide)” the EC50 of cell response (MDC dye) (Melanocortin 1 receptor) was 820 nM, the EC50 of cell response (TB & H30602) (Melanocortin 1 receptor) was 770 nM and the Fmax/ Fb (MDC dye) (Melanocortin 1 receptor) was 5. For the same substance, the Fmax/ Fb (TB & H30602) (Melanocortin 1 receptor) was 5.1.

In the case of “CRF (from UniProt P06850 154-194) (peptide)”, the EC50 of cell response (MDC dye) (CRHR1) is reported as 0.028 nM, the EC50 of cell response (NY & H30602) (CRHR1) is reported as 0.028 nM and the Fmax/ Fb (MDC dye) (CRHR1) is reported as 4.2. It also gave an Fmax/ Fb (NY & H30602) (CRHR1) of 4.3.

Work on “[Nle4-D-Phe7]α-MSH (from UniProt P01189 138-150) (peptide)” yielded an EC50 of cell response (MDC dye) (Melanocortin 5 receptor) of 2900 nM, an EC50 of cell response (NR& H30602) (Melanocortin 5 receptor) of 1300 nM and an EC50 of cell response (NY & H30602) (Melanocortin 5 receptor) of 950 nM. The Fmax/ Fb (MDC dye) (Melanocortin 5 receptor) was 3.6, the Fmax/ Fb (NR& H30602) (Melanocortin 5 receptor) was 3.2 and the Fmax/ Fb (NY & H30602) (Melanocortin 5 receptor) was 3.4.

“VIP (from UniProt P01282 125-152) (peptide)” gave an EC50 of cell response (MDC dye) [1] of 0.0024 nM, an EC50 of cell response (TB & H30602) [1] of 0.005 nM and an Fmax/ Fb (MDC dye) [1] of 4.9. For the same substance, the Fmax/ Fb (TB & H30602) [1] was 5.
